{
  "source": "paper doi:10.1101/2023.11.28.568993",
  "about": "(bioRxiv, 2023)",
  "proteins": {"B1": {"name": "DNAJA2 (wild-type, class A J-domain protein) (natural protein)", "chain": "not shown", "modifications": "Alexa Fluor-488 label in the fluorescence anisotropy assays (site not stated)"}},
  "target": "the molecule itself",
  "assay": "SEC",
  "data": [
    {"protein": "B1", "values": [
      {"measurement": "stoichiometry N", "result": 2}
    ]}
  ]
}
